# Measurements published in PMC4622073 (mAbs, 2014).
# T1: mST2-Fc fusion protein (unlabelled) (mouse, UniProt P14719 27-332)
# T1 sequence: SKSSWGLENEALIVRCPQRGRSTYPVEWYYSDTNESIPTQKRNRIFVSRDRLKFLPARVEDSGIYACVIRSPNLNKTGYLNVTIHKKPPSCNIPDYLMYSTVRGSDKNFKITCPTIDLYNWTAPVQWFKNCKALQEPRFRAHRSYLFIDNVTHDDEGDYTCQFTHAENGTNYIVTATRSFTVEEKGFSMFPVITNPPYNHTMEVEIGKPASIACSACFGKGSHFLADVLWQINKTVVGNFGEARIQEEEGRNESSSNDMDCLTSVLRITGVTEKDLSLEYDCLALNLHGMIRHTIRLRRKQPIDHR
# T2: biotinylated mST2-Fc fusion protein (mouse, UniProt P14719 27-332, biotin (site not stated))
# T2 sequence: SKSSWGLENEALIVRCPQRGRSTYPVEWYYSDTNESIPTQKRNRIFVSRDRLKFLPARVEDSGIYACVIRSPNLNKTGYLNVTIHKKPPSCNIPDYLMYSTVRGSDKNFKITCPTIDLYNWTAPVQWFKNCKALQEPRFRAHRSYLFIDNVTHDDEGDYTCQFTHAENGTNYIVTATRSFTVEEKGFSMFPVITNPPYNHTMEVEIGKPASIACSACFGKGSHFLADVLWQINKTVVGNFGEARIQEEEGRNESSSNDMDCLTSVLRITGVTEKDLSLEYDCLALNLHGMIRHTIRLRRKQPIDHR
# How the values were obtained:
# [1] = target: T1, mST2-Fc fusion protein (unlabelled); experiment: AlphaScreen or HTRF
# [2] = target: T2, biotinylated mST2-Fc fusion protein; experiment: AlphaScreen or HTRF
binder,measurement,setting,value
"mouse interleukin-33 (mIL-33), amino acids 97-266, FLAG 10His tagged (ligand) SIQAFAASVDTLSIQGTSLLTQSPASLSTYNDQSVSFVLENGCYVINVDDSGKDQEQDQVLLRYYESPCPASQSGDGVDGKKLMVNMSPIKDTDIWLHANDKDYSVELQRGDVSPPEQAFFVLHKKSSDFVSFECKNLPGTYIGVKDNQLALVEEKDESCNNIMFKLSKI",binding result,[1],binds
same,binding result,[2],binds
